Measured values from the array DNA melting data of Ke et al..

Test: melting temperature; melt of duplexes
Settings: sodium 0.0675 M; strand 1 µM

**Q.** For “CGACGTGCAGTATGTGCTG+CAGCACATCTGGCACGTCG ((((((((...((((((((+))))))))...))))))))”, which Tm is on record?
**A.** 51.4 °C

**Q.** For “CGACGTGCACAATGTGCTG+CAGCACATCGTGCACGTCG ((((((((((.((((((((+)))))))).))))))))))”, which Tm is on record?
**A.** 53 °C

**Q.** Which Tm does the source give for “CGACGTGCCTGATGTGCTG+CAGCACATCACGCACGTCG ((((((((.((((((((((+)))))))))).))))))))” here?
**A.** 55.5 °C

**Q.** For “CGACGTGCGCGATGTGCTG+CAGCACATCTAGCACGTCG ((((((((..(((((((((+)))))))))..))))))))”, which Tm is on record?
**A.** 55.5 °C

**Q.** For “CGACGTGCTGAATGTGCTG+CAGCACATACGGCACGTCG ((((((((.(.((((((((+)))))))).).))))))))”, which Tm is on record?
**A.** 54.1 °C

**Q.** Which Tm does the source give for “CGACGTGCAGTATGTGCTG+CAGCACATGAAGCACGTCG ((((((((...((((((((+))))))))...))))))))” here?
**A.** 50.5 °C

**Q.** Which Tm does the source give for “CGACGTGCATGATGTGCTG+CAGCACATCATGCACGTCG (((((((((((((((((((+)))))))))))))))))))” here?
**A.** 63.6 °C

**Q.** With “CGACGTGCCACATGTGCTG+CAGCACATTTTGCACGTCG ((((((((.(.((((((((+)))))))).).))))))))” as the substance, how does the Tm read?
**A.** 48 °C

**Q.** For “CGACGTGCTTGATGTGCTG+CAGCACATGGCGCACGTCG ((((((((...((((((((+))))))))...))))))))”, which Tm is on record?
**A.** 47.2 °C

**Q.** Which Tm does the source give for “CGACGTGCGTGATGTGCTG+CAGCACATTCGGCACGTCG ((((((((...((((((((+))))))))...))))))))” here?
**A.** 51.5 °C

**Q.** For “CGACGTGCAGGATGTGCTG+CAGCACATAGGGCACGTCG ((((((((...((((((((+))))))))...))))))))”, which Tm is on record?
**A.** 50.3 °C

**Q.** Which Tm does the source give for “CGACGTGCCGTATGTGCTG+CAGCACATAGCGCACGTCG ((((((((..(((((((((+)))))))))..))))))))” here?
**A.** 52.7 °C

**Q.** Which Tm does the source give for “CGACGTGCCCTATGTGCTG+CAGCACATCGTGCACGTCG ((((((((.(.((((((((+)))))))).).))))))))” here?
**A.** 44.2 °C

**Q.** Which Tm does the source give for “CGACGTGCCAGATGTGCTG+CAGCACATCAAGCACGTCG ((((((((..(((((((((+)))))))))..))))))))” here?
**A.** 53.7 °C

**Q.** With “CGACGTGCGCTATGTGCTG+CAGCACATGCGGCACGTCG ((((((((...((((((((+))))))))...))))))))” as the substance, how does the Tm read?
**A.** 54 °C

**Q.** With “CGACGTGCTTAATGTGCTG+CAGCACATCGCGCACGTCG ((((((((...((((((((+))))))))...))))))))” as the substance, how does the Tm read?
**A.** 46.7 °C

**Q.** With “CGACGTGCCGTATGTGCTG+CAGCACATTTCGCACGTCG ((((((((...((((((((+))))))))...))))))))” as the substance, how does the Tm read?
**A.** 48.5 °C

**Q.** For “CGACGTGCGCGATGTGCTG+CAGCACATAGCGCACGTCG ((((((((((.((((((((+)))))))).))))))))))”, which Tm is on record?
**A.** 63 °C

**Q.** With “CGACGTGCACAATGTGCTG+CAGCACATCACGCACGTCG ((((((((...((((((((+))))))))...))))))))” as the substance, how does the Tm read?
**A.** 45.3 °C

**Q.** With “CGACGTGCCTAATGTGCTG+CAGCACATTCCGCACGTCG ((((((((..(((((((((+)))))))))..))))))))” as the substance, how does the Tm read?
**A.** 49.7 °C

**Q.** With “CGACGTGCGGGATGTGCTG+CAGCACATATTGCACGTCG ((((((((...((((((((+))))))))...))))))))” as the substance, how does the Tm read?
**A.** 51.4 °C

**Q.** With “CGACGTGCACAATGTGCTG+CAGCACATGTGGCACGTCG ((((((((...((((((((+))))))))...))))))))” as the substance, how does the Tm read?
**A.** 51.2 °C

**Q.** Which Tm does the source give for “CGACGTGCAATATGTGCTG+CAGCACATGCAGCACGTCG ((((((((...((((((((+))))))))...))))))))” here?
**A.** 52.1 °C

**Q.** Which Tm does the source give for “CGACGTGCTGGATGTGCTG+CAGCACATGGAGCACGTCG (((((((((..((((((((+))))))))..)))))))))” here?
**A.** 53.2 °C

**Q.** For “CGACGTGCGCAATGTGCTG+CAGCACATTTGGCACGTCG ((((((((..(((((((((+)))))))))..))))))))”, which Tm is on record?
**A.** 52.5 °C

**Q.** With “CGACGTGCATAATGTGCTG+CAGCACATTCAGCACGTCG ((((((((..(((((((((+)))))))))..))))))))” as the substance, how does the Tm read?
**A.** 52 °C

**Q.** For “CGACGTGCTTAATGTGCTG+CAGCACATAATGCACGTCG ((((((((.(.((((((((+)))))))).).))))))))”, which Tm is on record?
**A.** 51.5 °C

**Q.** With “CGACGTGCCCCATGTGCTG+CAGCACATCCAGCACGTCG ((((((((...((((((((+))))))))...))))))))” as the substance, how does the Tm read?
**A.** 47.4 °C

**Q.** With “CGACGTGCATAATGTGCTG+CAGCACATGTTGCACGTCG (((((((((..((((((((+))))))))..)))))))))” as the substance, how does the Tm read?
**A.** 53.7 °C

**Q.** With “CGACGTGCGTCATGTGCTG+CAGCACATCCTGCACGTCG ((((((((...((((((((+))))))))...))))))))” as the substance, how does the Tm read?
**A.** 48.9 °C

**Q.** Which Tm does the source give for “CGACGTGCTCAATGTGCTG+CAGCACATGGAGCACGTCG ((((((((((.((((((((+)))))))).))))))))))” here?
**A.** 59.5 °C

**Q.** Which Tm does the source give for “CGACGTGCTAGATGTGCTG+CAGCACATCATGCACGTCG ((((((((..(((((((((+)))))))))..))))))))” here?
**A.** 55.6 °C

**Q.** For “CGACGTGCGGGATGTGCTG+CAGCACATCTTGCACGTCG ((((((((..(((((((((+)))))))))..))))))))”, which Tm is on record?
**A.** 57.3 °C

**Q.** With “CGACGTGCGCGATGTGCTG+CAGCACATACCGCACGTCG (((((((((..((((((((+))))))))..)))))))))” as the substance, how does the Tm read?
**A.** 53.8 °C

**Q.** With “CGACGTGCCCCATGTGCTG+CAGCACATCCCGCACGTCG ((((((((...((((((((+))))))))...))))))))” as the substance, how does the Tm read?
**A.** 46.2 °C

**Q.** For “CGACGTGCGCGATGTGCTG+CAGCACATTAAGCACGTCG ((((((((...((((((((+))))))))...))))))))”, which Tm is on record?
**A.** 55 °C

**Q.** For “CGACGTGCGAGATGTGCTG+CAGCACATCCGGCACGTCG ((((((((..(((((((((+)))))))))..))))))))”, which Tm is on record?
**A.** 55.7 °C

**Q.** Which Tm does the source give for “CGACGTGCCAGATGTGCTG+CAGCACATTAAGCACGTCG ((((((((...((((((((+))))))))...))))))))” here?
**A.** 50.7 °C

**Q.** For “CGACGTGCCGTATGTGCTG+CAGCACATTTTGCACGTCG ((((((((...((((((((+))))))))...))))))))”, which Tm is on record?
**A.** 47.5 °C

**Q.** Which Tm does the source give for “CGACGTGCCAAATGTGCTG+CAGCACATTCTGCACGTCG ((((((((..(((((((((+)))))))))..))))))))” here?
**A.** 51.5 °C

**Q.** With “CGACGTGCCGTATGTGCTG+CAGCACATGATGCACGTCG ((((((((...((((((((+))))))))...))))))))” as the substance, how does the Tm read?
**A.** 49.2 °C

**Q.** Which Tm does the source give for “CGACGTGCTGCATGTGCTG+CAGCACATAATGCACGTCG ((((((((...((((((((+))))))))...))))))))” here?
**A.** 50.7 °C

**Q.** For “CGACGTGCTTGATGTGCTG+CAGCACATATAGCACGTCG (((((((((..((((((((+))))))))..)))))))))”, which Tm is on record?
**A.** 54 °C

**Q.** With “CGACGTGCATCATGTGCTG+CAGCACATGTAGCACGTCG ((((((((..(((((((((+)))))))))..))))))))” as the substance, how does the Tm read?
**A.** 55.3 °C

**Q.** With “CGACGTGCTCTATGTGCTG+CAGCACATGATGCACGTCG ((((((((...((((((((+))))))))...))))))))” as the substance, how does the Tm read?
**A.** 51.1 °C

**Q.** Which Tm does the source give for “CGACGTGCCTAATGTGCTG+CAGCACATGGAGCACGTCG ((((((((...((((((((+))))))))...))))))))” here?
**A.** 51.9 °C

**Q.** With “CGACGTGCATGATGTGCTG+CAGCACATCCAGCACGTCG ((((((((..(((((((((+)))))))))..))))))))” as the substance, how does the Tm read?
**A.** 53.6 °C

**Q.** For “CGACGTGCTGAATGTGCTG+CAGCACATGCGGCACGTCG ((((((((.(.((((((((+)))))))).).))))))))”, which Tm is on record?
**A.** 55.3 °C

**Q.** For “CGACGTGCAAAATGTGCTG+CAGCACATAGAGCACGTCG ((((((((...((((((((+))))))))...))))))))”, which Tm is on record?
**A.** 48.9 °C

**Q.** For “CGACGTGCGAAATGTGCTG+CAGCACATCCCGCACGTCG (((((((((..((((((((+))))))))..)))))))))”, which Tm is on record?
**A.** 52.9 °C

**Q.** Which Tm does the source give for “CGACGTGCTCAATGTGCTG+CAGCACATGTTGCACGTCG ((((((((...((((((((+))))))))...))))))))” here?
**A.** 50.1 °C

**Q.** With “CGACGTGCTCCATGTGCTG+CAGCACATAATGCACGTCG ((((((((...((((((((+))))))))...))))))))” as the substance, how does the Tm read?
**A.** 48.4 °C
